{
  "source": "paper PMC5095173",
  "about": "“Disulfide-activated protein kinase G Iα regulates cardiac diastolic relaxation and fine-tunes the Frank–Starling response” (Nature Communications, 2016)",
  "binders": {"B1": {"name": "phospholamban (mouse myocardium), P61014 1-52 (natural protein)", "chain": "MEKVQYLTRSAIRRASTIEMPQQARQNLQNLFINFCLILICLLLICIIVMLL"}},
  "target": "T1, phospholamban (mouse myocardium) (mouse (endogenous in mouse heart)), P61014",
  "T1 chain": "B1 chain",
  "test": "SDS-PAGE of samples not boiled, with immunoblot; mouse heart homogenate, samples not boiled before western blotting for total PLN; WT and C42S PKGIα KI hearts",
  "conditions": "remark: other sources report otherwise",
  "data": [
    {"binder": "B1", "values": [
      {"measurement": "stoichiometry N", "result": 5}
    ]}
  ]
}
